{"source": "paper PMC3159478", "about": "(Nucleic Acids Research, 2011)", "binders": {"B1": {"name": "fork 5'-tail-50 nt / 3'-tail-30 nt (mixed)", "DNA 1": "CACCTCTCCCTACGCTTCCCACCCACCCCGACCGGCATCTGCTATGGTACGCTGAGCGAGAGTAGC", "DNA 2": "CGATGAGAGCCGATGAGAGCCGATGAGAGCGAGTCGCATGGTATCGTCTAGCCGGTCGGGGTGGGTGGGAAGCGTAGGGAGAGGTG"}}, "experiment_in_all_cases": "fluorescence anisotropy", "key": {"SsoMCM R440A": {"biological_target": "T1, SsoMCM R440A (Sulfolobus solfataricus, UniProt Q9UXG1 1-686, R440A)", "T1 sequence": "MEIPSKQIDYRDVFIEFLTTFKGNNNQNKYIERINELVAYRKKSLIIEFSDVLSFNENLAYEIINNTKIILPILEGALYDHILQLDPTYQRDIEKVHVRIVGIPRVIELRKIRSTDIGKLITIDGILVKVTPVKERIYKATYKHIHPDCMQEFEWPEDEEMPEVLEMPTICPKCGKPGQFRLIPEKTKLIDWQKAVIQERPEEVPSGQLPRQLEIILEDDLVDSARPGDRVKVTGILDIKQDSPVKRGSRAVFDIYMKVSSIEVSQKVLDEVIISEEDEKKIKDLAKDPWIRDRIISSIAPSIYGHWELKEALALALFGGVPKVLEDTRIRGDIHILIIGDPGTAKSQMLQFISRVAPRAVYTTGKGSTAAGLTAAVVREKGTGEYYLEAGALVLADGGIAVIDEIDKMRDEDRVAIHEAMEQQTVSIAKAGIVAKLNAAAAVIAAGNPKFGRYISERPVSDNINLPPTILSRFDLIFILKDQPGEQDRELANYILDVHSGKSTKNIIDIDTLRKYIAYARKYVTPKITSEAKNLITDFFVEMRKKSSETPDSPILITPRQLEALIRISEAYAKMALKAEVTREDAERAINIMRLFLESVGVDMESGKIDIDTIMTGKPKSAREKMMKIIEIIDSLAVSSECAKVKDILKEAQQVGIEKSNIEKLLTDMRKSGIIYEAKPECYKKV"}, "SsoMCM WT": {"biological_target": "T2, SsoMCM WT (Sulfolobus solfataricus, UniProt Q9UXG1 1-686)", "T2 sequence": "T1 sequence with A440R"}, "SsoMCM K323A": {"biological_target": "T3, SsoMCM K323A (Sulfolobus solfataricus, UniProt Q9UXG1 1-686, K323A)", "T3 sequence": "T1 sequence with K323A, A440R"}, "SsoMCM K323A/R440A": {"biological_target": "T4, SsoMCM K323A/R440A (Sulfolobus solfataricus, UniProt Q9UXG1 1-686, K323A;R440A)", "T4 sequence": "T1 sequence with K323A"}}, "note": "Changes are numbered by the printed parent chain.", "data": [{"binder": "B1", "values": [{"measurement": "Kd", "setting": "SsoMCM R440A", "result": "92 ± 13", "unit": "nM"}, {"measurement": "Kd", "setting": "SsoMCM WT", "result": "75 ± 13", "unit": "nM"}, {"measurement": "Kd", "setting": "SsoMCM K323A", "result": "93 ± 10", "unit": "nM"}, {"measurement": "Kd", "setting": "SsoMCM K323A/R440A", "result": "90 ± 9", "unit": "nM"}]}]}
